Results published in patent US5319071, “Soluble interleukin-1 receptors” (Immunex Corporation, dated 1994).
Blank lines part the entries; values can stand above or below the molecule they belong to.

Experiments:
[1] = target: native murine IL-1 receptor of EL-4 6.1 C10 cells (murine)
[2] = target: T1, recombinant human IL-1α (polypeptide composed of the C-terminal 157 residues of IL-1α, Mr 17,500 form) (human, UniProt P01583, 125I label (chloramine-T method, ca 1 atom of iodine per IL-1α molecule) where used as tracer; fluorescein isothiocyanate conjugate in flow cytometry; unlabeled as competitor; coupled to Sepharose 4B …); assay: direct binding of 125I-IL-1α to COS cells transfected with clone 78, Scatchard analysis
T1 sequence: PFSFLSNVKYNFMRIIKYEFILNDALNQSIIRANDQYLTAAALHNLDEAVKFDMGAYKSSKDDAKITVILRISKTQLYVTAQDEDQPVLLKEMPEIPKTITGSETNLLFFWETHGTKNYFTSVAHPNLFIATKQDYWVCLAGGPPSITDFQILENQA

[3] = target: T1, recombinant human IL-1α (polypeptide …); assay: direct binding of 125I-IL-1α to EL-4 6.1 C10 cells, Scatchard analysis
[4] = target: T1, recombinant human IL-1α (polypeptide …); assay: receptor in Triton X-100 solution (diluted extract) inhibiting 125I-IL-1α binding to extract on nitrocellulose; competitive inhibition model

- IL-2 production from EL-4 6.1 C10 cells [1]: 100%
Molecule: recombinant human IL-1α (polypeptide composed of the C-terminal 157 residues of IL-1α, Mr 17,500 form) (from UniProt P01583) (ligand)

- Ka [2]: 3e+09 M⁻¹
B1: recombinant murine IL-1 receptor (clone 78 in pDC201) expressed on COS cells (receptor)
chain: LEIDVCTEYPNQIVLFLSVNEIDIRKCPLTPNKMHGDTIIWYKNDSKTPISADRDSRIHQQNEHLWFVPAKVEDSGYYYCIVRNSTYCLKTKVTVTVLENDPGLCYSTQATFPQRLHIAGDGSLVCPYVSYFKDENNELPEVQWYKNCKPLLLDNVSFFGVKDKLLVRNVAEEHRGDYICRMSYTFRGKQYPVTRVIQFITIDENKRDRPVILSPRNETIEADPGSMIQLICNVTGQFSDLVYWKWNGSEIEWNDPFLAEDYQFVEHPSTKRKYTLITTLNISEVKSQFYRYPFICVVKNTNIFESAHVQLIYPVPDFKNYLIGGFIILTATIVCCVCIYKVFKVDIVLWYRDSCSGFLPSKASDGKTYDAYILYPKTLGEGSFSDLDTFVFKLLPEVLEGQFGYKLFIYGRDDYVGEDTIEVTNENVKKSRRLIIILVRDMGGFSWLGQSSEEQIAIYNALIQEGIKIVLLELEKIQDYEKMPDSIQFIKQKHGVICWSGDFQERPQSAKTRFWKNLRYQMPAQRRSPLSKHRLLTLDPVRDTKEKLPAATHLPLG

- Ka [3]: 4.3e+09 M⁻¹
- Ka [4]: 4.5e+09 M⁻¹
B2: native murine IL-1 receptor of EL-4 6.1 C10 cells (receptor)
chain: LEIDVCTEYPNQIVLFLSVNEIDIRKCPLTPNKMHGDTIIWYKNDSKTPISADRDSRIHQQNEHLWFVPAKVEDSGYYYCIVRNSTYCLKTKVTVTVLENDPGLCYSTQATFPQRLHIAGDGSLVCPYVSYFKDENNELPEVQWYKNCKPLLLDNVSFFGVKDKLLVRNVAEEHRGDYICRMSYTFRGKQYPVTRVIQFITIDENKRDRPVILSPRNETIEADPGSMIQLICNVTGQFSDLVYWKWNGSEIEWNDPFLAEDYQFVEHPSTKRKYTLITTLNISEVKSQFYRYPFICVVKNTNIFESAHVQLIYPVPDFKNYLIGGFIILTATIVCCVCIYKVFKVDIVLWYRDSCSGFLPSKASDGKTYDAYILYPKTLGEGSFSDLDTFVFKLLPEVLEGQFGYKLFIYGRDDYVGEDTIEVTNENVKKSRRLIIILVRDMGGFSWLGQSSEEQIAIYNALIQEGIKIVLLELEKIQDYEKMPDSIQFIKQKHGVICWSGDFQERPQSAKTRFWKNLRYQMPAQRRSPLSKHRLLTLDPVRDTKEKLPAATHLPLG
modifications: glycoprotein (N-linked carbohydrate), Mr 82,000
